Reference: US20190276511A1 (BIONTECH RNA PHARMACEUTICALS, published 2019)
Where two headings read alike, the source gives them in different places.

T1: OX40 receptor on cells (human, UniProt P43489 29-277)
T1 sequence (looked up): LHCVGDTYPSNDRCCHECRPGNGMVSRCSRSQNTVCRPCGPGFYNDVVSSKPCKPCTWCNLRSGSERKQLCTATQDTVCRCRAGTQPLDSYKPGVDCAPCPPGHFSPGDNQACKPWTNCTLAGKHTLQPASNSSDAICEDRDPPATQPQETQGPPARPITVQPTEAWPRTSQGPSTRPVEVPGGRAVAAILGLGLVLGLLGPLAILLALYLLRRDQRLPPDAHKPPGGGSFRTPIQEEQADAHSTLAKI

T2: OX40-Fc (human, UniProt P43489 29-214)
T2 construct: extracellular domain; hinge included for covalent assembly; also called OX40 receptor-Fc fusion protein; not shown: human Fc gamma 1 region including the hinge region
T2 sequence (looked up): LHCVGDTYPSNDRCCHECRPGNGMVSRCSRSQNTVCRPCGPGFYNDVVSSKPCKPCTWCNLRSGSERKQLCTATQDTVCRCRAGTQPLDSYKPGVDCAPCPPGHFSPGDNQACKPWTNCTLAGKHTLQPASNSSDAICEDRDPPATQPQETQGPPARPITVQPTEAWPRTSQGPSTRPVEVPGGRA

T3: CD27-Fc (human, UniProt P26842 20-191)
T3 construct: extracellular domain; hinge included for covalent assembly; also called CD27 receptor-Fc fusion protein; not shown: human Fc gamma 1 region including the hinge region
T3 sequence (looked up): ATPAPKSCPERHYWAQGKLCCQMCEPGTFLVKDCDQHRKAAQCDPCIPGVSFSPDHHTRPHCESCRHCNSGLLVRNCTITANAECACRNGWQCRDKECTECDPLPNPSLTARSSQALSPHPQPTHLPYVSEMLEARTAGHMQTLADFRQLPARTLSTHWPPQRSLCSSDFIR


Assays:
OX40 receptor on cells [1] = target: T1, OX40 receptor on cells; assay: cell-based or functional assay
CD40-Fc [2] = target: T4, CD40-Fc (human, UniProt P25942 21-193); assay: ELISA, coated receptor-Fc
T4 construct: extracellular domain; hinge included for covalent assembly; also called CD40 receptor-Fc fusion protein; not shown: human Fc gamma 1 region including the hinge region
T4 sequence (P25942 21-193 limits assumed): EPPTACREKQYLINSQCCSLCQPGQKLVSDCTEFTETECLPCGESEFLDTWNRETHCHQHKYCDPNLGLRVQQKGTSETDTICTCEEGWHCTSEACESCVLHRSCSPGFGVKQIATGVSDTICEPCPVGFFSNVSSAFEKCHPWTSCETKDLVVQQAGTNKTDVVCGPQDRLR

4-1BB-Fc = target: T5, 4-1BB-Fc (human, UniProt Q07011 24-186); assay: ELISA, coated receptor-Fc
T5 construct: extracellular domain; hinge included for covalent assembly; also called 4-1BB receptor-Fc fusion protein; not shown: human Fc gamma 1 region including the hinge region

OX40-Fc [3] = target: T2, OX40-Fc; assay: ELISA, coated receptor-Fc
Procedure: (§1) Receptor binding of the Duokines was analyzed by ELISA using fusion proteins of the extracellular region of CD40, CD27, 4-1BB and OX40, respectively, with the human Fcγ1 region including the hinge region for covalent assembly (CD40-Fc, CD27-Fc, 4-1BB-Fc, OX40-Fc). Receptor-Fc fusion proteins (200 ng/well) were coated overnight at 4° C. and remaining binding sites were blocked with PBS, 2% skimmed milk powder (2% MPBS).

CD27-Fc [4] = target: T3, CD27-Fc; assay: ELISA, coated receptor-Fc
Procedure: as §1

OX40-Fc [5] = target: T2, OX40-Fc; assay: ELISA, coated receptor-Fc; remark: listed apart in the source
Procedure: as §1, with “of the single-chain Duokines was” for “of the Duokines was”, “(2% MPBS). […] The interactions between scDuokine and receptor were dose-dependent with EC₅₀ values in the low nanomolar ranges (FIG. 11 AB, Tab. 2).” for “(2% MPBS).”

CD40-Fc [6] = target: T4, CD40-Fc; assay: ELISA, coated receptor-Fc; remark: listed apart in the source
Procedure: as §1, with “of the single-chain Duokines was” for “of the Duokines was”, “(2% MPBS). […] The interactions between scDuokine and receptor were dose-dependent with EC₅₀ values in the low nanomolar ranges (FIG. 11 AB, Tab. 2).” for “(2% MPBS).”

CD27-Fc [7] = target: T3, CD27-Fc; assay: ELISA, coated receptor-Fc; remark: listed apart in the source
OX40 receptor on cells [8] = target: T1, OX40 receptor on cells; assay: cell-based or functional assay; remark: listed apart in the source
CD40 receptor on cells [9] = target: T6, CD40 receptor on cells (human, UniProt P25942 21-277); assay: cell-based or functional assay
T6 sequence (P25942 21-277): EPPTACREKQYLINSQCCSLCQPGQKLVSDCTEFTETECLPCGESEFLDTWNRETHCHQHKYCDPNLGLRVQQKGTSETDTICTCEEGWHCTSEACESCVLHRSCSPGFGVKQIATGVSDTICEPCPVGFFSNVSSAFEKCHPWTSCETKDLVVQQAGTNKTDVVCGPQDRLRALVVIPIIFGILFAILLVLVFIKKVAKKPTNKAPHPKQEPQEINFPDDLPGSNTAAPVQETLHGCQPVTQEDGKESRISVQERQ

CD40 receptor on cells [10] = target: T6, CD40 receptor on cells; assay: cell-based or functional assay; remark: listed apart in the source
CD40-Fc [11] = target: T4, CD40-Fc; assay: ELISA, coated receptor-Fc; remark: listed apart in the source
Procedure: as §1

Receptor activation (EC50, nM) (OX40 receptor on cells [1]) | binding result (CD40-Fc [2]) | binding result (4-1BB-Fc) | EC50 (OX40-Fc [3]) | EC50 (CD27-Fc [4]) | EC50 (OX40-Fc [5]) | EC50 (CD40-Fc [6]) | binding result (CD27-Fc [7]) | Receptor activation (EC50, nM) (OX40 receptor on cells [8]) | Receptor activation (EC50, nM) (CD40 receptor on cells [9]) | Receptor activation (EC50, nM) (CD40 receptor on cells [10]) | EC50 (CD40-Fc [11]) | Binder
10.2 nM | no binding (tested: 100 nM (FIG. 4)) | no binding (tested: 100 nM (FIG. 4)) | 3.16 nM | 6.74 nM | – | – | – | – | – | – | – | CD27L-OX40L (ligand, Duokine from HEK293, FLAG-purified; VH leader left out; homotrimer by SEC; also called Duokine CD27L-OX40L; not shown: N-terminal FLAG tag) SLGWDVAELQLNHTGPQQDPRLYWQGGPALGRSFLHGPELDKGQLRIHRDGIYMVHIQVTLAICSSTTASRHHPTTLAVGICSPASRSISLLRLSFHQGCTIASQRLTPLARGDTLCTNLTGTLLPSRNTDETFFGVQWVRPGGGGSGGGGSGGGGSQVSHRYPRIQSIKVQFTEYKKEKGFILTSQKEDEIMKVQNNSVIINCDGFYLISLKGYFSQEVNISLHYQKDEEPLFQLKKVRSVNSLMVASLTYKDKVYLNVTTDNTSLDDFHVNGGELILIHQNPGEFCVL
– | – | no binding (tested: 100 nM (FIG. 10)) | – | – | 2.13 nM | 6.74 nM | no binding (tested: 100 nM (FIG. 10)) | 0.51 nM | 3.22 nM | – | – | scOX40L-scCD40L (ligand, scDuokine from HEK293, FLAG-purified; VH leader left out; also called single-chain Duokine scOX40L-scCD40L; not shown: N-terminal FLAG tag) QVSHRYPRIQSIKVQFTEYKKEKGFILTSQKEDEIMKVQNNSVIINCDGFYLISLKGYFSQEVNISLHYQKDEEPLFQLKKVRSVNSLMVASLTYKDKVYLNVTTDNTSLDDFHVNGGELILIHQNPGEFCVLGGGSGGGQVSHRYPRIQSIKVQFTEYKKEKGFILTSQKEDEIMKVQNNSVIINCDGFYLISLKGYFSQEVNISLHYQKDEEPLFQLKKVRSVNSLMVASLTYKDKVYLNVTTDNTSLDDFHVNGGELILIHQNPGEFCVLGGGSGGGQVSHRYPRIQSIKVQFTEYKKEKGFILTSQKEDEIMKVQNNSVIINCDGFYLISLKGYFSQEVNISLHYQKDEEPLFQLKKVRSVNSLMVASLTYKDKVYLNVTTDNTSLDDFHVNGGELILIHQNPGEFCVLGGGGSGGGTGGGGSGDQNPQIAAHVISEASSKTTSVLQWAEKGYYTMSNNLVTLENGKQLTVKRQGLYYIYAQVTFCSNREASSQAPFIASLCLKSPGRFERILLRAANTHSSAKPCGQQSIHLGGVFELQPGASVFVNVTDPSQVSHGTGFTSFGLLKLGGGSGGGGDQNPQIAAHVISEASSKTTSVLQWAEKGYYTMSNNLVTLENGKQLTVKRQGLYYIYAQVTFCSNREASSQAPFIASLCLKSPGRFERILLRAANTHSSAKPCGQQSIHLGGVFELQPGASVFVNVTDPSQVSHGTGFTSFGLLKLGGGSGGGGDQNPQIAAHVISEASSKTTSVLQWAEKGYYTMSNNLVTLENGKQLTVKRQGLYYIYAQVTFCSNREASSQAPFIASLCLKSPGRFERILLRAANTHSSAKPCGQQSIHLGGVFELQPGASVFVNVTDPSQVSHGTGFTSFGLLKL
0.73 nM | – | no binding (tested: 100 nM (FIG. 4)) | 1.01 nM | – | – | – | no binding (tested: 100 nM (FIG. 4)) | – | – | 3.86 nM | 1.45 nM | OX40L-CD40L (ligand, Duokine from HEK293, FLAG-purified; VH leader left out; homotrimer by SEC; also called Duokine OX40L-CD40L; not shown: N-terminal FLAG tag) QVSHRYPRIQSIKVQFTEYKKEKGFILTSQKEDEIMKVQNNSVIINCDGFYLISLKGYFSQEVNISLHYQKDEEPLFQLKKVRSVNSLMVASLTYKDKVYLNVTTDNTSLDDFHVNGGELILIHQNPGEFCVLGGGGSGGGGSGGGGSGDQNPQIAAHVISEASSKTTSVLQWAEKGYYTMSNNLVTLENGKQLTVKRQGLYYIYAQVTFCSNREASSQAPFIASLCLKSPGRFERILLRAANTHSSAKPCGQQSIHLGGVFELQPGASVFVNVTDPSQVSHGTGFTSFGLLKL
